These are literature values, as cited in publication PMC5013049.

The target of series [1] is ExsE (Pseudomonas aeruginosa) (UniProt Q9I322). The series is described as follows: ITC.
The target of series [2] is ExsD (Pseudomonas aeruginosa) (UniProt Q9I321). Description: ITC. In general terms: Isothermal titration calorimetry measures the heat released or taken up as one component is titrated into another.
Sequence of UniProt Q9I321 (Q9I321 whole entry): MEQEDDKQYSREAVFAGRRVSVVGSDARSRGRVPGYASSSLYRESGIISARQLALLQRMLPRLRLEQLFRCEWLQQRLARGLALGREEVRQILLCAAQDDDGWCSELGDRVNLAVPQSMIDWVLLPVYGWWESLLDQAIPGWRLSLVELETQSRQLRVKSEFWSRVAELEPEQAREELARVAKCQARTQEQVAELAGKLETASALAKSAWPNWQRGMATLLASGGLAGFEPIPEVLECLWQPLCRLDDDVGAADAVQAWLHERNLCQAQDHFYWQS

Sequence of UniProt Q9I322 (Q9I322 whole entry): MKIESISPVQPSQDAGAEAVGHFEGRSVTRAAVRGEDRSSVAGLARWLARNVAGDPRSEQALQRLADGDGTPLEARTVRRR

For orientation: Kd means the equilibrium constant for the complex coming apart. ExsC (from UniProt P26995): the figures for the dissociation constant Kd in series [1] and in series [2] were 1 nM and 18 nM, respectively.
